Values of other authors as cited in paper PMC3654037.
Blank lines part the entries; values can stand above or below the substance they belong to.

Legend:
[1] = biological target: CD48 (Homo sapiens) (UniProt P09326)
[2] = biological target: CD86 (Homo sapiens) (UniProt P42081)
[3] = biological target: nectin-1 (Homo sapiens) (UniProt Q15223)
[4] = biological target: nectin-4 (Homo sapiens) (UniProt Q96NY8)
[5] = biological target: CD58 (Homo sapiens) (UniProt P19256)
[6] = biological target: nectin-2 (Homo sapiens) (UniProt Q92692)

Sequence of UniProt P19256 (P19256 29-215): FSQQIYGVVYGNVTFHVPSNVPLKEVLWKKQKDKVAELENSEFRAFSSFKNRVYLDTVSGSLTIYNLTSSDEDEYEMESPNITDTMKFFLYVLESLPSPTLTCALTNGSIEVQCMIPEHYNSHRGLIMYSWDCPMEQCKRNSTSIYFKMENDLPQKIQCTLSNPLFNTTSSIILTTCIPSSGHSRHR
Sequence of UniProt P42081 (P42081 24-247): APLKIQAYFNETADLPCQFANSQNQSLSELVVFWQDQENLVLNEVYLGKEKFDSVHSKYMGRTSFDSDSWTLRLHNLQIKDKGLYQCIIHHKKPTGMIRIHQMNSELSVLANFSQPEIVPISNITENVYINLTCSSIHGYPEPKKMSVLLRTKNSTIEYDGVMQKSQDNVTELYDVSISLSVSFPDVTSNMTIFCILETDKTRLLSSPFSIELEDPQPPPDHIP
Sequence of UniProt P09326 (P09326 27-220): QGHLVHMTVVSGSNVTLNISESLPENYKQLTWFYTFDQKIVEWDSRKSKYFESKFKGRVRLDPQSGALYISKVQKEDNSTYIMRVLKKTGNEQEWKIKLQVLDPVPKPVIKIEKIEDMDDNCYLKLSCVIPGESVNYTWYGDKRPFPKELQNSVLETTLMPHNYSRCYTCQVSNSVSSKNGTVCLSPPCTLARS

- Kd [1]: 10 µM
Substance: 2B4 (from UniProt Q9BZW8)

- Kd [2]: 20 µM
Substance: CD28 (from UniProt P10747)

- Kd [3]: 17.5 µM
Substance: nectin-1 (from UniProt Q15223)

- Kd [4]: 153 µM
Substance: nectin-4 (from UniProt Q96NY8)

- Kd [5]: 10 µM
Substance: CD2 (from UniProt P06729)

- Kd [6]: 0.4 µM
Substance: nectin-2 (from UniProt Q92692)
